Assay results taken from patent US20200024330A1.

Legend:
[1] = molecular target: HIV-1 92TH021 envelope glycoprotein (Env) on pseudovirus (HIV-1); test: cell-based or functional assay
[2] = molecular target: HIV-1 MGRM-D-001 envelope glycoprotein (Env) on pseudovirus (HIV-1); test: cell-based or functional assay
[3] = molecular target: HIV-1 CMU02 envelope glycoprotein (Env) on pseudovirus (HIV-1); test: cell-based or functional assay
[4] = molecular target: HIV-1 APV17 envelope glycoprotein (Env) on pseudovirus (HIV-1); test: cell-based or functional assay
[5] = molecular target: HIV-1 MGRM-AG-005 envelope glycoprotein (Env) on pseudovirus (HIV-1); test: cell-based or functional assay
[6] = molecular target: HIV-1 MGRM-A-010 envelope glycoprotein (Env) on pseudovirus (HIV-1); test: cell-based or functional assay
[7] = molecular target: HIV-1 93IN905 envelope glycoprotein (Env) on pseudovirus (HIV-1); test: cell-based or functional assay
[8] = molecular target: HIV-1 MGRM-C-028 envelope glycoprotein (Env) on pseudovirus (HIV-1); test: cell-based or functional assay
[9] = molecular target: HIV-1 94UG103 envelope glycoprotein (Env) on pseudovirus (HIV-1); test: cell-based or functional assay
[10] = molecular target: HIV-1 MGRM-D-018 envelope glycoprotein (Env) on pseudovirus (HIV-1); test: cell-based or functional assay
[11] = molecular target: HIV-1 MGRM-C-027 envelope glycoprotein (Env) on pseudovirus (HIV-1); test: cell-based or functional assay
[12] = molecular target: HIV-1 92UG005 envelope glycoprotein (Env) on pseudovirus (HIV-1); test: cell-based or functional assay
[13] = molecular target: HIV-1 APV6 envelope glycoprotein (Env) on pseudovirus (HIV-1); test: cell-based or functional assay
[14] = molecular target: HIV-1 NL43 envelope glycoprotein (Env) on pseudovirus (HIV-1); test: cell-based or functional assay
[15] = molecular target: HIV-1 APV13 envelope glycoprotein (Env) on pseudovirus (HIV-1); test: cell-based or functional assay
[16] = molecular target: HIV-1 92RW020 envelope glycoprotein (Env) on pseudovirus (HIV-1); test: cell-based or functional assay
[17] = molecular target: HIV-1 92BR020 envelope glycoprotein (Env) on pseudovirus (HIV-1); test: cell-based or functional assay
[18] = molecular target: HIV-1 JRFL envelope glycoprotein (Env) on pseudovirus (HIV-1); test: cell-based or functional assay
[19] = molecular target: HIV-1 JRCSF envelope glycoprotein (Env) on pseudovirus (HIV-1) (UniProt P20871); test: cell-based or functional assay
[20] = molecular target: HIV-1 93UG077 envelope glycoprotein (Env) on pseudovirus (HIV-1); test: cell-based or functional assay
[21] = molecular target: aMLV envelope protein on pseudovirus (negative control virus); test: cell-based or functional assay
[22] = molecular target: HIV-1 92UG024 envelope glycoprotein (Env) on pseudovirus (HIV-1); test: cell-based or functional assay
[23] = molecular target: HIV-1 MGRM-C-026 envelope glycoprotein (Env) on pseudovirus (HIV-1); test: cell-based or functional assay
[24] = molecular target: WT JR-FL gp120 (HIV-1 (isolate JR-FL)); test: ELISA on coated gp120; EC50 by nonlinear regression
[25] = molecular target: JR-FL gp120 ΔV3 (HIV-1 (isolate JR-FL)); test: as above
[26] = molecular target: JR-FL gp120 ΔV1/ΔV2 (HIV-1 (isolate JR-FL)); test: as above
[27] = molecular target: Env of the clade D HIV-1 pseudoviruses of the cross-clade 162-pseudovirus panel (n = 25); test: cell-based or functional assay
[28] = molecular target: HIV-1 Env of isolate JR-CSF (HIV-1) (UniProt P20871); test: cell-based or functional assay
[29] = molecular target: Env of the clade B HIV-1 pseudoviruses of the cross-clade 162-pseudovirus panel (n = 31); test: cell-based or functional assay
[30] = molecular target: Env of the clade A HIV-1 pseudoviruses of the cross-clade 162-pseudovirus panel (n = 26); test: cell-based or functional assay
[31] = molecular target: Env of the clade G HIV-1 pseudoviruses of the cross-clade 162-pseudovirus panel (n = 15); test: cell-based or functional assay
[32] = molecular target: Env of the clade F HIV-1 pseudoviruses of the cross-clade 162-pseudovirus panel (n = 15); test: cell-based or functional assay
[33] = molecular target: HIV-1 Env of isolate 93IN905 (HIV-1); test: cell-based or functional assay
[34] = molecular target: Env of the clade C HIV-1 pseudoviruses of the cross-clade 162-pseudovirus panel (n = 27); test: cell-based or functional assay
[35] = molecular target: HIV-1 Env of isolate MGRM-C-026 (HIV-1); test: cell-based or functional assay

B1: PGT-136 (5329_C19; 5366_P21) human monoclonal anti-HIV antibody (antibody, V domains shown)
VH: QLQLQESGPGLVKPSETLSLTCTVSGGSMRGTDWGENDFHYGWIRQSSAKGLEWIGSIHWRGRTTHYKTSFRSRATLSIDTSNNRFSLTFSFVTAADTAVYYCARHKYHDIFRVVPVAGWFDPWGQGLLVTVSS
VL: EIVMTQSPPTLSVSPGETATLSCRASQNVKNNLAWYQLKPGQAPRLLIFDASSRAGGIPDRFSGSGYGTDFTLTVNSVQSEDFGDYFCQQYEEWPRTFGQGTKVDIK
In the case of B1, the neutralization IC50 [1] is reported as > 10 µg/mL, the neutralization IC80 [1] is reported as > 10 µg/mL and the neutralization IC90 [1] is reported as > 10 µg/mL. The neutralization IC95 [1] was > 10 µg/mL, the neutralization IC50 [2] was > 10 µg/mL and the neutralization IC80 [2] was > 10 µg/mL. For the same binder, the neutralization IC90 [2] was > 10 µg/mL, the neutralization IC95 [2] was > 10 µg/mL and the neutralization IC50 [3] was > 10 µg/mL. The neutralization IC80 [3] was > 10 µg/mL, the neutralization IC90 [3] was > 10 µg/mL and the neutralization IC95 [3] was > 10 µg/mL. For the same binder, the neutralization IC50 [4] was > 10 µg/mL, the neutralization IC80 [4] was > 10 µg/mL and the neutralization IC90 [4] was > 10 µg/mL. For the same binder, the neutralization IC95 [4] was > 10 µg/mL, the neutralization IC50 [5] was > 10 µg/mL and the neutralization IC80 [5] was > 10 µg/mL. The neutralization IC90 [5] was > 10 µg/mL, the neutralization IC95 [5] was > 10 µg/mL and the neutralization IC50 [6] was > 10 µg/mL. The neutralization IC80 [6] was > 10 µg/mL, the neutralization IC90 [6] was > 10 µg/mL and the neutralization IC95 [6] was > 10 µg/mL. For the same binder, the neutralization IC50 [7] was 0.0135 µg/mL, the neutralization IC80 [7] was 0.0623 µg/mL and the neutralization IC90 [7] was 0.156 µg/mL. The neutralization IC95 [7] was 0.379 µg/mL, the neutralization IC50 [8] was > 10 µg/mL and the neutralization IC80 [8] was > 10 µg/mL. The neutralization IC90 [8] was > 10 µg/mL, the neutralization IC95 [8] was > 10 µg/mL and the neutralization IC50 [9] was > 10 µg/mL. For the same binder, the neutralization IC80 [9] was > 10 µg/mL, the neutralization IC90 [9] was > 10 µg/mL and the neutralization IC95 [9] was > 10 µg/mL. The neutralization IC50 [10] was > 10 µg/mL, the neutralization IC80 [10] was > 10 µg/mL and the neutralization IC90 [10] was > 10 µg/mL. For the same binder, the neutralization IC95 [10] was > 10 µg/mL, the neutralization IC50 [11] was > 10 µg/mL and the neutralization IC80 [11] was > 10 µg/mL. The neutralization IC90 [11] was > 10 µg/mL, the neutralization IC95 [11] was > 10 µg/mL and the neutralization IC50 [12] was > 10 µg/mL. For the same binder, the neutralization IC80 [12] was > 10 µg/mL, the neutralization IC90 [12] was > 10 µg/mL and the neutralization IC95 [12] was > 10 µg/mL. For the same binder, the neutralization IC50 [13] was > 10 µg/mL, the neutralization IC80 [13] was > 10 µg/mL and the neutralization IC90 [13] was > 10 µg/mL. The neutralization IC95 [13] was > 10 µg/mL, the neutralization IC50 [14] was > 10 µg/mL and the neutralization IC80 [14] was > 10 µg/mL. The neutralization IC90 [14] was > 10 µg/mL, the neutralization IC95 [14] was > 10 µg/mL and the neutralization IC50 [15] was > 10 µg/mL. For the same binder, the neutralization IC80 [15] was > 10 µg/mL, the neutralization IC90 [15] was > 10 µg/mL and the neutralization IC95 [15] was > 10 µg/mL. For the same binder, the neutralization IC50 [16] was 0.738 µg/mL, the neutralization IC80 [16] was > 10 µg/mL and the neutralization IC90 [16] was > 10 µg/mL. For the same binder, the neutralization IC95 [16] was > 10 µg/mL, the neutralization IC50 [17] was > 10 µg/mL and the neutralization IC80 [17] was > 10 µg/mL. The neutralization IC90 [17] was > 10 µg/mL, the neutralization IC95 [17] was > 10 µg/mL and the neutralization IC50 [18] was > 10 µg/mL. The neutralization IC80 [18] was > 10 µg/mL, the neutralization IC90 [18] was > 10 µg/mL and the neutralization IC95 [18] was > 10 µg/mL. The neutralization IC50 [19] was > 10 µg/mL, the neutralization IC80 [19] was > 10 µg/mL and the neutralization IC90 [19] was > 10 µg/mL. The neutralization IC95 [19] was > 10 µg/mL, the neutralization IC50 [20] was > 10 µg/mL and the neutralization IC80 [20] was > 10 µg/mL. For the same binder, the neutralization IC90 [20] was > 10 µg/mL, the neutralization IC95 [20] was > 10 µg/mL and the neutralization IC50 [21] was > 10 µg/mL. For the same binder, the neutralization IC80 [21] was > 10 µg/mL, the neutralization IC90 [21] was > 10 µg/mL and the neutralization IC95 [21] was > 10 µg/mL. It also gave a neutralization IC50 [22] of 0.0915 µg/mL, a neutralization IC80 [22] of 0.619 µg/mL and a neutralization IC90 [22] of 1.96 µg/mL. For the same binder, the neutralization IC95 [22] was 5.97 µg/mL, the neutralization IC50 [23] was 0.0065 µg/mL and the neutralization IC80 [23] was 0.0285 µg/mL. It also gave a neutralization IC90 [23] of 0.0687 µg/mL and a neutralization IC95 [23] of 0.159 µg/mL.

B2: PGT-137 (antibody, V domains shown)
VH: EVHLEESGPGLVRPSETLSLTCTASGGSIRGGEWGDSDYHWGWVRHSPEKGLEWIGSIHWRGTTHYNAPFRGRGRLSIDLSRNQFSLRLTSVTAEDTAVYYCVKHKYHDIVMVVPIAGWFDPWGQGLQVTVSS
VL: EIMMTQSPAILSVSPGDRATLSCRASQSVKNNLAWYQKRPGQAPRLLIFDTSSRASGIPARFSGGGSGTEFTLTVNSMQSEDFATYYCQQYEEWPRTFGQGTKVEIK
For B2, the EC50 [24] was 0.1 µg/mL, the EC50 [25] was 0.1 µg/mL and the EC50 [26] was 0.2 µg/mL. It also gave a Median IC50 against viruses neutralized with an IC50 <50 µg/ml [27] of 6.3 µg/mL, a Primary Neutralization Index (B cell culture well 5345 I1) [28] of 1.1 and a Median IC50 against viruses neutralized with an IC50 <50 µg/ml [29] of 8.55 µg/mL. It also gave a Median IC50 against viruses neutralized with an IC50 <50 µg/ml [30] of 0.72 µg/mL, a Median IC50 against viruses neutralized with an IC50 <50 µg/ml [31] of 0.23 µg/mL and a Median IC50 against viruses neutralized with an IC50 <50 µg/ml [32] of 6.23 µg/mL. It also gave a Primary Neutralization Index (B cell culture well 5345 I1) [33] of 3.3, a Median IC50 against viruses neutralized with an IC50 <50 µg/ml [34] of 0.23 µg/mL and a Primary Neutralization Index (B cell culture well 5345 I1) [35] of 11.3.
